B1: RAD51AP1 (RAD51 associated protein 1), full-length wild type [not stated] / RAD51 recombinase [not stated] (parent complex)
chain 1: MVRPVRHKKPVNYSQFDHSDSDDDFVSATVPLNKKSRTAPKELKQDKPKPNLNNLRKEEIPVQEKTPKKRLPEGTFSIPASAVPCTKMALDDKLYQRDLEVALALSVKELPTVTTNVQNSQDKSIEKHGSSKIETMNKSPHISNCSVASDYLDLDKITVEDDVGGVQGKRKAASKAAAQQRKILLEGSDGDSANDTEPDFAPGEDSEDDSDFCESEDNDEDFSMRKSKVKEIKKKEVKVKSPVEKKEKKSKSKCNALVTSVDSAPAAVKSESQSLPKKVSLSSDTTRKPLEIRSPSAESKKPKWVPPAASGGSRSSSSPLVVVSVKSPNQSLRLGLSRLARVKPLHPNATST
chain 2: MAMQMQLEANADTSVEEESFGPQPISRLEQCGINANDVKKLEEAGFHTVEAVAYAPKKELINIKGISEAKADKILAEAAKLVPMGFTTATEFHQRRSEIIQITTGSKELDKLLQGGIETGSITEMFGEFRTGKTQICHTLAVTCQLPIDRGGGEGKAMYIDTEGTFRPERLLAVAERYGLSGSDVLDNVAYARAFNTDHQTQLLYQASAMMVESRYALLIVDSATALYRTDYSGRGELSARQMHLARFLRMLLRLADEFGVAVVITNQVVAQVDGAAMFAADPKKPIGGNIIAHASTTRLYLRKGRGETRICKIYDSPCLPEAEAMFAINADGVGDAKD

Variants of: B1
Assay: BLI; RAD51 about 2.5 µM (highest point, read from the x axis); read off a plot

Row | Variant | response
1 | chain 1 R333A, chain 1 L334A, chain 1 L336A | ~0.005 nm

— publication PMC12704761, “RAD51AP1 is a versatile RAD51 modulator” (Proceedings of the National Academy of Sciences of the …, 2025)
